Laboratory results: IntAct's records for PubMed 18923430

B1: DnaJ homolog subfamily C member 3 (Mus musculus), Q91YW3 (parent)
chain: MVAPGSVGSRLGAVFPFLLVLVDLQYEGAECGVNADVEKHLELGKKLLAAGQLADALSQFHAAVDGDPDNYIAYYRRATVFLAMGKSKAALPDLTKVIALKMDFTAARLQRGHLLLKQGKLDEAEDDFKKVLKSNPSEQEEKEAESQLVKADEMQRLRSQALDAFDGADYTAAITFLDKILEVCVWDAELRELRAECFIKEGEPRKAISDLKAASKLKSDNTEAFYKISTLYYQLGDHELSLSEVRECLKLDQDHKRCFAHYKQVKKLNKLIESAEELIRDGRYTDATSKYESVMKTEPSVAEYTVRSKERICHCFSKDEKPVEAIRICSEVLQMEPDNVNALKDRAEAYLIEEMYDEAIQDYEAAQEHNENDQQIREGLEKAQRLLKQSQKRDYYKILGVKRNAKKQEIIKAYRKLALQWHPDNFQNEEEKKKAEKKFIDIAAAKEVLSDPEMRKKFDDGEDPLDAESQQGGGGNPFHRSWNSWQGFNPFSSGGPFRFKFHFN

Variants of: B1
Conditions: with bip_human HSPA5, P11021
Chain of bip_human HSPA5, P11021 (P11021 whole entry): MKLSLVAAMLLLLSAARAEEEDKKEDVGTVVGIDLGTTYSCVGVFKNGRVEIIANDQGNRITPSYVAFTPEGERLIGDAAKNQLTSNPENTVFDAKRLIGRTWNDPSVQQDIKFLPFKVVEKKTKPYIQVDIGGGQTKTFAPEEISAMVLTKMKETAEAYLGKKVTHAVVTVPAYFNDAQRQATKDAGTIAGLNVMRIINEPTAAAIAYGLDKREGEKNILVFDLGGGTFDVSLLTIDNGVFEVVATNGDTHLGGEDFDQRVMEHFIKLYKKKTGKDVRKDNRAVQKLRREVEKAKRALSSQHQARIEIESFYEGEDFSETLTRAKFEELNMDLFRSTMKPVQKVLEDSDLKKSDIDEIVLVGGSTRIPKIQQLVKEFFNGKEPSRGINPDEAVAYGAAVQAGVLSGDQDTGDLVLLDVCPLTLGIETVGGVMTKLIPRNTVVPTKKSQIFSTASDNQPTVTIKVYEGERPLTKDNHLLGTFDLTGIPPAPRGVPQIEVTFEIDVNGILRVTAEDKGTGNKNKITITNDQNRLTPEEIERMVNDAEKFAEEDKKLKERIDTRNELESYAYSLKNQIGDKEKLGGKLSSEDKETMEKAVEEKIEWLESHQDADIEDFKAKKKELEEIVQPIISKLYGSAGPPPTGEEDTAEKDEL

effect of a mutation on the interaction | Variant
disrupting interaction | MVAPGSVGSRLGAVFPFLLVLVDLQYEGAECGVNADVEKHLELGKKLLAAGQLADALSQFHAAVDGDPDNYIAYYRRATVFLAMGKSKAALPDLTKVIALKMDFTAARLQRGHLLLKQGKLDEAEDDFKKVLKSNPSEQEEKEAESQLVKADEMQRLRSQALDAFDGADYTAAITFLDKILEVCVWDAELRELRAECFIKEGEPRKAISDLKAASKLKSDNTEAFYKISTLYYQLGDHELSLSEVRECLKLDQDHKRCFAHYKQVKKLNKLIESAEELIRDGRYTDATSKYESVMKTEPSVAEYTVRSKERICHCFSKDEKPVEAIRICSEVLQMEPDNVNALKDRAEAYLIEEMYDEAIQDYEAAQEHNENDQQIREGLEKAQRLLKQSQKRDYYKILGVKRNAKKQEIIKAYRKLALQWQPDNFQNEEEKKKAEKKFIDIAAAKEVLSDPEMRKKFDDGEDPLDAESQQGGGGNPFHRSWNSWQGFNPFSSGGPFRFKFHFN [H422Q]
